Reference: paper doi:10.1101/2022.01.06.475303

Columns and labels:
[1] = target: SARS-CoV-2 receptor binding domain (RBD), Wuhan-1 (SARS-CoV-2 Wuhan-Hu-1) (UniProt P0DTC2); assay: SPR
[2] = target: SARS-CoV-2 S protein (recombinant, His-tagged) (SARS-CoV-2 Wuhan-Hu-1 (MN908947)) (UniProt P0DTC2)

In the case of CC12.1 IgG (antibody), the Kd [1] is reported as 6 nM.
Work on CC6.33 Fab yielded a fold higher binding affinity than for RBD [2] of 10 fold.
Substance CC6.30 IgG (antibody) has a Kd [1] of 1.7 nM.
For CC6.33 IgG (antibody), the Kd [1] was 257 nM.
